The results in this text go back to patent US20040009905A1 (B M R A CORPORATION B V, published 2004).

This assay deals with T1, NPY Y1 receptor (human, UniProt P25929 1-384).
T1 construct: whole, on cells; SK-N-MC cells are said to express the NPY Y1 receptor exclusively; also called SK-N-MC cells
T1 sequence (looked up): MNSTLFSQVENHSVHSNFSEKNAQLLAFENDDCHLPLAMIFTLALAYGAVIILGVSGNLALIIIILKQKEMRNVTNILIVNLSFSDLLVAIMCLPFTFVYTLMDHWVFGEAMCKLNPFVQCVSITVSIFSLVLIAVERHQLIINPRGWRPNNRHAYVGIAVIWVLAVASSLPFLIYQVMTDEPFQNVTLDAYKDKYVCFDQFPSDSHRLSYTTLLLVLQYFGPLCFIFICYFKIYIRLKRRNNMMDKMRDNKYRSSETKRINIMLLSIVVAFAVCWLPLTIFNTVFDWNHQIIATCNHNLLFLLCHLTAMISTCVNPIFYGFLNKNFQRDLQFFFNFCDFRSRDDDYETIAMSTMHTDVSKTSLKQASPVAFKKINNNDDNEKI
As to the kind of experiment: 125I-NPY displacement on SK-N-MC cells. The protocol:
Various peptide dilutions were incubated with SK-N-MC cells that exclusively express Y1 receptors. Cells were then washed three times with buffer and lysed in 1% Nonidet P40 (Fluka, Neu-Ulm, Germany), 8M urea, 3M acetic acid. […] At the end of the incubation period, cells were washed and lysed. Bound radioactivity was determined by gamma counting. […] Each point represents the mean ± of at least 4 experiments.

B1: Neuropeptide Y (NPY) (peptide)
peptide: not shown
modifications: C-terminal tyrosine amidated
notes: also called native NPY; Human NPY 1-36
For the molecule B1, the binding result is recorded as “binds”.
